Reference: ChEMBL document CHEMBL1130474, “Conformationally restricted arginine analogues as inhibitors of human nitric oxide synthase” (Bioorg Med Chem Lett, 1997)

B1: Nitric oxide synthase 3 (Homo sapiens), P29474 (protein)
chain: MGNLKSVAQEPGPPCGLGLGLGLGLCGKQGPATPAPEPSRAPASLLPPAPEHSPPSSPLTQPPEGPKFPRVKNWEVGSITYDTLSAQAQQDGPCTPRRCLGSLVFPRKLQGRPSPGPPAPEQLLSQARDFINQYYSSIKRSGSQAHEQRLQEVEAEVAATGTYQLRESELVFGAKQAWRNAPRCVGRIQWGKLQVFDARDCRSAQEMFTYICNHIKYATNRGNLRSAITVFPQRCPGRGDFRIWNSQLVRYAGYRQQDGSVRGDPANVEITELCIQHGWTPGNGRFDVLPLLLQAPDDPPELFLLPPELVLEVPLEHPTLEWFAALGLRWYALPAVSNMLLEIGGLEFPAAPFSGWYMSTEIGTRNLCDPHRYNILEDVAVCMDLDTRTTSSLWKDKAAVEINVAVLHSYQLAKVTIVDHHAATASFMKHLENEQKARGGCPADWAWIVPPISGSLTPVFHQEMVNYFLSPAFRYQPDPWKGSAAKGTGITRKKTFKEVANAVKISASLMGTVMAKRVKATILYGSETGRAQSYAQQLGRLFRKAFDPRVLCMDEYDVVSLEHETLVLVVTSTFGNGDPPENGESFAAALMEMSGPYNSSPRPEQHKSYKIRFNSISCSDPLVSSWRRKRKESSNTDSAGALGTLRFCVFGLGSRAYPHFCAFARAVDTRLEELGGERLLQLGQGDELCGQEEAFRGWAQAAFQAACETFCVGEDAKAAARDIFSPKRSWKRQRYRLSAQAEGLQLLPGLIHVHRRKMFQATIRSVENLQSSKSTRATILVRLDTGGQEGLQYQPGDHIGVCPPNRPGLVEALLSRVEDPPAPTEPVAVEQLEKGSPGGPPPGWVRDPRLPPCTLRQALTFFLDITSPPSPQLLRLLSTLAEEPREQQELEALSQDPRRYEEWKWFRCPTLLEVLEQFPSVALPAPLLLTQLPLLQPRYYSVSSAPSTHPGEIHLTVAVLAYRTQDGLGPLHYGVCSTWLSQLKPGDPVPCFIRGAPSFRLPPDPSLPCILVGPGTGIAPFRGFWQERLHDIESKGLQPTPMTLVFGCRCSQLDHLYRDEVQNAQQRGVFGRVLTAFSREPDNPKTYVQDILRTELAAEVHRVLCLERGHMFVCGDVTMATNVLQTVQRILATEGDMELDEAGDVIGVLRDQQRYHEDIFGLTLRTQEVTSRIRTQSFSLQERQLRGAVPWAFDPPGSDTNSP
B2: Nitric oxide synthase 1 (Homo sapiens), P29475 (protein)
chain: MEDHMFGVQQIQPNVISVRLFKRKVGGLGFLVKERVSKPPVIISDLIRGGAAEQSGLIQAGDIILAVNGRPLVDLSYDSALEVLRGIASETHVVLILRGPEGFTTHLETTFTGDGTPKTIRVTQPLGPPTKAVDLSHQPPAGKEQPLAVDGASGPGNGPQHAYDDGQEAGSLPHANGLAPRPPGQDPAKKATRVSLQGRGENNELLKEIEPVLSLLTSGSRGVKGGAPAKAEMKDMGIQVDRDLDGKSHKPLPLGVENDRVFNDLWGKGNVPVVLNNPYSEKEQPPTSGKQSPTKNGSPSKCPRFLKVKNWETEVVLTDTLHLKSTLETGCTEYICMGSIMHPSQHARRPEDVRTKGQLFPLAKEFIDQYYSSIKRFGSKAHMERLEEVNKEIDTTSTYQLKDTELIYGAKHAWRNASRCVGRIQWSKLQVFDARDCTTAHGMFNYICNHVKYATNKGNLRSAITIFPQRTDGKHDFRVWNSQLIRYAGYKQPDGSTLGDPANVQFTEICIQQGWKPPRGRFDVLPLLLQANGNDPELFQIPPELVLEVPIRHPKFEWFKDLGLKWYGLPAVSNMLLEIGGLEFSACPFSGWYMGTEIGVRDYCDNSRYNILEEVAKKMNLDMRKTSSLWKDQALVEINIAVLYSFQSDKVTIVDHHSATESFIKHMENEYRCRGGCPADWVWIVPPMSGSITPVFHQEMLNYRLTPSFEYQPDPWNTHVWKGTNGTPTKRRAIGFKKLAEAVKFSAKLMGQAMAKRVKATILYATETGKSQAYAKTLCEIFKHAFDAKVMSMEEYDIVHLEHETLVLVVTSTFGNGDPPENGEKFGCALMEMRHPNSVQEERKSYKVRFNSVSSYSDSQKSSGDGPDLRDNFESAGPLANVRFSVFGLGSRAYPHFCAFGHAVDTLLEELGGERILKMREGDELCGQEEAFRTWAKKVFKAACDVFCVGDDVNIEKANNSLISNDRSWKRNKFRLTFVAEAPELTQGLSNVHKKRVSAARLLSRQNLQSPKSSRSTIFVRLHTNGSQELQYQPGDHLGVFPGNHEDLVNALIERLEDAPPVNQMVKVELLEERNTALGVISNWTDELRLPPCTIFQAFKYYLDITTPPTPLQLQQFASLATSEKEKQRLLVLSKGLQEYEEWKWGKNPTIVEVLEEFPSIQMPATLLLTQLSLLQPRYYSISSSPDMYPDEVHLTVAIVSYRTRDGEGPIHHGVCSSWLNRIQADELVPCFVRGAPSFHLPRNPQVPCILVGPGTGIAPFRSFWQQRQFDIQHKGMNPCPMVLVFGCRQSKIDHIYREETLQAKNKGVFRELYTAYSREPDKPKKYVQDILQEQLAESVYRALKEQGGHIYVCGDVTMAADVLKAIQRIMTQQGKLSAEDAGVFISRMRDDNRYHEDIFGVTLRTYEVTNRLRSESIAFIEESKKDTDEVFSS

Experiments:
[1] = substrate: N=C(N)NCCC[C@H](N)C(=O)O
[2] = substrate: N=C(N)NCCC[C@H](N)C(=O)O; remark: listed apart in the source

Protein | Km [1] [µM] | Km [2] [µM]
B1 | 0.9 | 
B2 |  | 1.6
